Values joined by “and” are separate entries in the source; they are usually repeats but may differ in a detail not shown here. Equal values may be shown once. Where a SMILES comes first, the peptide text is derived from it. The star is where a group is joined. X1 = CC(C(=O)*)c1ccc(-c2ccccc2)c(F)c1
Key:
bEnd.3 cells = assay: LDH release assay (loss of cell membrane integrity); format: cell-based, mouse; details: 25 to 400 µM, 24 and 48 h, absorbance 492 nm, n = 6
Procedure: Immortalised brain endothelial cells, bEnd.3 (passages 15–20), were cultured, according to the (manufacture ATCC) product sheet, in a Dulbecco’s modified eagle’s medium (DMEM) high glucose medium with L-pyruvate, containing 10% (v/v) foetal bovine serum (FBS) and 1% (v/v) of 500 U/mL Penicillin/Streptomycin (Gibco, Gaithersburg, MD, USA). Cells were seeded at a density of 5 × 10^4 cells per cm^2 in 24-well plates, which were incubated at 37 °C and 5% CO2 with replacement of the culture media every 3 days.
(§1) The lactate dehydrogenase (LDH) assay provides an indication of loss of cell membrane integrity and was measured using a Promega CytoTox96® nonradioactive cytotoxicity assay kit (Southampton, UK) after 24 and 48 h of treatment. Absorption was read spectrophotometrically at 492 nm and converted to a percentage of the total LDH released from the positive control (untreated cells with complete lysis).

[1] = Hydrolysis and drug release in acidic lysosome-mimicking buffer; format: physicochemical; details: phthalate buffer pH 4.5; 200 µM; static, 24 h, 37 °C; HPLC
Procedure: The AEP-K-FP was analysed for the hydrolysis of the amide linkage that coupled the drug molecules to the peptide carrier as well as its amino acids residues. This hydrolysis of the complex was evaluated in an acidic solution mimicking the lysosomal pH conditions that are likely to be found in an inflamed tissue such as that of AD-affected brain tissue. The acidic buffer solution was prepared using a phthalate solution, according to manufacturer’s instructions (Thomas Scientific, Swedesboro, NJ, USA), to obtain a final pH of 4.5. The AEP-K-FP was dissolved in this buffer solution at a concentration of 200 µM and incubated at static conditions for 24 h, 37 °C. Samples were collected and analysed by HPLC.

HUVEC = assay: LDH release assay (loss of cell membrane integrity); format: cell-based, human; details: 25 to 400 µM, 24 and 48 h, absorbance 492 nm, n = 6
Procedure: The synthesised AEP-K-FP was also tested on human umbilical vein endothelial cells (HUVECs) (ATCC- Manassas, VA, USA) (passages 35 to 39). HUVECs were routinely cultured in an endothelial basal medium (F-12K) containing 0.05 mg/mL of endothelial cell growth supplement (ECGS), 0.1 mg/mL of heparin (Gibco Gaithersburg, MD, USA) and adjusted to a final concentration of 10% v/v of FBS (according to the manufacturer’s recommendations).
as §1

bEnd.3 monolayer = assay: Penetration across in vitro BBB model (bEnd.3 monolayer on transwell); format: in vitro ADME, mouse; details: for Increase of percentage permeated relative to free FP: 200 µM; for Percentage permeated across in vitro BBB model (% of applied concentration): bEnd.3 monolayer on 12-transwell inserts, 200 µM in FBS-free, phenol-free culture media, HPLC C18, UV 248 nm
Procedure: The lyophilised powders of both AEP-K-FP and the free drug (FP) were dissolved in the FBS-free, phenol-free culture media in a concentration of 200 µM. Quantitative analysis of penetration for the free-drug and drug-attached delivery system was undertaken using HPLC (Agilent technology, Stockport, UK). The analysis was carried out using a hydrophobic C18 column (150 × 4.6 mm) at 25 °C and 20 μL of injection volume. The flow rate used was 0.6 mL/min, while the UV-detection wavelength was 248 nm, which is the λmax of FP [9]. The HPLC mobile phase solvents consisted of water/acetonitrile in which the gradient of eluent was run from 75:25 to 25:75 water: acetonitrile over 20 min. The standard curve for each molecule was obtained to calculate the percentage of the amount that transported across the in vitro BBB model.
To establish an in vitro BBB model, bEnd.3 cells were seeded on microporous membrane of 12-transwell inserts with complete culture media in a routine manner. Trans-endothelial electrical resistance (TEER) between apical and basolateral chambers was measured using an Evom voltometer (Sarasota, FL, USA) to determine the day of maximum values indicating tight junction formation, as previously described.

[2] = test system: brain endothelial cells (bEnd.3); assay: Hoechst 33342/propidium iodide (HPI) staining, cell death assessment; format: cell-based, mouse; details: 100, 300 and 400 µM, 24 h, n = 6
From the text: For cell death assessment, Hoechst 33342 and propidium iodide (PI) salt (HPI) was used (Sigma-Aldrich, Gillingham, UK). These intracellular dyes stain cells in which the Hoechst 33342 binds to DNA, so it is staining the nuclei, whereas PI stains […], resulting in emission of light observed under a fluorescent microscopy. Live cells appear blue with intact membranes on microscopic examination, and those at early and late apoptotic phases appear bright blue with shrinkage. On the other hand, necrotic or damaged cells appear red with ruptured membranes.
HPI dye was prepared by adding 900 µL of DMEM to a mixture solution of 50 µL of 1mg/mL Hoechst 33342 and 50 µL of 2 μg/mL PI in a glass vial. After 24 h of treatment and incubation, which were performed as previously discussed, an epi fluorescent microscopy (Olympus microscope equipped with a Nikon D1X camera, UK) was used to identify and count the cells with distinct morphologies. Cell counts for healthy (living), apoptotic, or necrotic cells were obtained from the same treatment in duplicate wells and from three different fields for each well. Counting of the cells was measured according to their appearance then averaged and expressed as a percent of the total cell number.

[3] = test system: γ-secretase in C6 glial cells; assay: Quantification of γ-secretase enzyme by sandwich ELISA in treated cells; format: cell-based; details: 200 µM in F-12K, 4 h, cell lysate supernatant, 6 readings, untreated control 28.43 ± 8.32
Procedure: C6 glial cells (ATCC-) (passages less than 20) were seeded using the complete growth medium, which was made according to the ATCC product sheet by addition of FBS to a final concentration of 2.5% v/v and horse serum (Gibco Gaithersburg, MD, USA) to a final concentration of 15% v/v to F-12K medium. Experiments were performed when cells reached confluence.
The investigation is based on sandwich enzyme-linked immunosorbent assay (ELISA) technology using a γ-secretase enzyme kit (Abbexa Ltd., Cambridge, UK). After confluence, C6 glial cells were treated with 200 µM FP or AEP-K-FP / F-12K solution. Wells containing untreated C6 cells were also included as a control. After 4 h of incubation, cells were washed and lysed to be centrifuged, and the supernatant was collected for assaying the γ-secretase activity immediately, according to kit instructions. Data were expressed as pg/mL, following kit instructions.

[4] = set-up: method as in PMID 7736686; details: cited from earlier work
γ-secretase = test system: γ-secretase; set-up: method as in PMID 20009055, PMID 18450517; details: at target brain tissue; cited from earlier work

Penetration, % of initial payload concentration (bEnd.3 monolayer; bEnd.3 BBB model, time not stated at this place (discussion)) | Structure (SMILES) | LDH release, % of positive control (complete lysis) (bEnd.3 cells) | Percentage of hydrolysed FP out of the total amount of AEP-K-FP [1] [%] | LDH release, % of positive control (complete lysis) (HUVEC) | Increase of percentage permeated relative to free FP (bEnd.3 monolayer; bEnd.3 BBB model, 1 h) | Increase of percentage permeated relative to free FP (bEnd.3 monolayer; bEnd.3 BBB model, 4 h) [times] | Percentage permeated across in vitro BBB model (% of applied concentration) (bEnd.3 monolayer; 1 h) [%] | Percentage permeated across in vitro BBB model (% of applied concentration) (bEnd.3 monolayer; 4 h) [%] | Apoptotic cells, % of total cell number (HPI staining) [2] [%] | Healthy cells, % of total cell number (HPI staining) [2] [%] | Necrotic cells, % of total cell number (HPI staining) [2] [%] | γ-secretase enzyme amount, Mean ± SD [3] | Biological half-life [4] [h] | Time to full excretion from the body [4] [h] | Required therapeutic concentration for significant pharmacological effect on γ-secretase activity (γ-secretase)
 | CC(C)C[C@H](NC(=O)[C@H](CC(C)C)NC(=O)[C@H](CCCNC(=N)N)NC(=O)[C@H](CCCCN)NC(=O)[C@H](CCCNC(=N)N)NC(=O)[C@H](CC(C)C)NC(=O)[C@H](CCCCN)NC(=O)[C@H](CCCNC(=N)N)NC(=O)[C@H](CC(C)C)NC(=O)[C@H](CCCCNC(=O)C(C)c1ccc(-c2ccccc2)c(F)c1)NC(=O)C(C)c1ccc(-c2ccccc2)c(F)c1)C(=O)N[C@@H](CCCNC(=N)N)C(=O)O (stereo partly drawn) [AEP-K-FP] (X1-K(X1)LRKLRKRLLR-OH; N-terminus and C-terminus assumed) | less than 50% | 69.2 | less than 50% | more than 6 times | 4 | 16.3 | 35.9 | ≤ 4.7 | ≥ 91 | ≤ 3.4 | 14.6 pg/mL and 14.60 ± 3.51 pg/mL |  |  | 
less than 9% | CC(C(=O)O)c1ccc(-c2ccccc2)c(F)c1 (stereo not drawn) [FP, Flurbiprofen] |  |  |  |  |  | ≤ 2.7 | ≤ 8.5 |  |  |  | 8.2 pg/mL and 8.20 ± 3.80 pg/mL | 4 | ≤ 24 | 150−250 μM

Reference: PMC7466704, “A Peptide-Based Nanocarrier for an Enhanced Delivery and Targeting of Flurbiprofen into the Brain for the Treatment of Alzheimer’s Disease: An In Vitro Study” (Nanomaterials, 2020)
